Data on 4 substances can be found in publication PMC5547543.

In test [1] the target is Hck (2PA-YEEI) (UniProt P08631). Description: SPR; Hck (2PA-YEEI) amine-coupled (EDC/NHS) to a CMD 500 carboxymethyl dextran chip, 6053 RU, BIAcore 2000; Csk, Chk, Chk mutants and chimera as analytes in HBS (10 mM HEPES pH 7.4, 150 mM NaCl, 3.4 mM EDTA, 0.005% Tween 20); global fit to a 1 to 1 model with mass transfer; molecular binding activity from the maximum response. For orientation: Surface plasmon resonance follows binding to a sensor surface in real time, without labels.

For test [2] the target is unchanged. The test is described as above. The source holds these as a separate data set.

pKd: −log10 of the molar value. Like-named read-outs stand apart in the source and are kept apart here.

Chain of C-terminal Src kinase (Csk), recombinant (P41240 whole entry): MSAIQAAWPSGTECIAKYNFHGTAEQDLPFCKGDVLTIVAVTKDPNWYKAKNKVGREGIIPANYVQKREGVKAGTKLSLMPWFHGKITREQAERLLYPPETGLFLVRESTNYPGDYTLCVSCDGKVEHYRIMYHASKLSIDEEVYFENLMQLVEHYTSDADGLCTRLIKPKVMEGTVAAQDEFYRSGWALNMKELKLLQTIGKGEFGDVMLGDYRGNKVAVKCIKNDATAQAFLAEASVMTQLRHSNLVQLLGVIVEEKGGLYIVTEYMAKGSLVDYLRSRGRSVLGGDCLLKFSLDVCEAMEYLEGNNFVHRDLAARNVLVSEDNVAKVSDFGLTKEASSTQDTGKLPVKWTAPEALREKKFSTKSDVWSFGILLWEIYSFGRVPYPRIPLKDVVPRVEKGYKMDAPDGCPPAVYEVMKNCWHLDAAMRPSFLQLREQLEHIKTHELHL

The term pKd denotes the Kd on a negative log10 scale, so that one unit is a factor of ten. For orientation: koff means a measure of how fast the partners let go of each other. Broadly, the kon is a measure of how fast the partners come together. Consider “C-terminal Src kinase (Csk), recombinant (from UniProt P41240 1-450) (enzyme)”, for which the pKd in the test with Hck (2PA-YEEI) [1] is 4.89. In the test with Hck (2PA-YEEI) [2], this substance showed a pKd of 4.88, a koff of 0.0077 s⁻¹ and an association rate constant (kon) of 588 M⁻¹ s⁻¹. The substance also showed a molecular binding activity (MBA) at 2.7 μM Csk in the test with Hck (2PA-YEEI) [2] (scale: mol of analyte bound per mol of immobilized Hck) of 0.01.

Substance “Chk (K387A) (from UniProt P42679-2 1-508) (enzyme)” showed a pKd with Hck (2PA-YEEI) [1] of 6.53. Moreover, the fold reduction of kon against wild type Chk with Hck (2PA-YEEI) [2] was found to be 3 fold.

For “Chk (R382A) (from UniProt P42679-2 1-508) (enzyme)”, in the test with Hck (2PA-YEEI) [1], the pKd is 6.64. Moreover, the fold reduction of kon against wild type Chk with Hck (2PA-YEEI) [2] is 3 fold.

In the test with Hck (2PA-YEEI) [2], “Csk-Chk chimera (from UniProt P41240 1-181; P42679 235-482) (enzyme)” returned a koff of 0.00031 s⁻¹ and a kon of 243 M⁻¹ s⁻¹.
